Tests used:
MiCy-DEVD-mKO = molecular target: T1, MiCy-DEVD-mKO
T1 chain: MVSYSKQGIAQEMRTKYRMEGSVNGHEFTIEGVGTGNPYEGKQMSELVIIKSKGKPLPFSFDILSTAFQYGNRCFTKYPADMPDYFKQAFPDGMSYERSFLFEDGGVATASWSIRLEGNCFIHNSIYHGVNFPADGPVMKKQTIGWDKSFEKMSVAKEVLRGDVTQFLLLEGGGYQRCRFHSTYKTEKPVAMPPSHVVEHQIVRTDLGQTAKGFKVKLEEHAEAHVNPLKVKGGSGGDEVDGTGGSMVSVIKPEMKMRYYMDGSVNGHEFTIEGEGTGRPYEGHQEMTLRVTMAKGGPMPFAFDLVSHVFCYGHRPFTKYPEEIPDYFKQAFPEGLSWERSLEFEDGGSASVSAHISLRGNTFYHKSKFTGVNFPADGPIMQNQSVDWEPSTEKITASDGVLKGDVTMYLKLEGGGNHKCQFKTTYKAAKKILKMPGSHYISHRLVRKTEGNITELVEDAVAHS

[1] = molecular target: ECFP-(spacer) DEVD-keima 616
[2] = molecular target: keima 616-(spacer) DEVD-ECFP

B1: Caspase-3 (protein)
chain: SGISLDNSYKMDYPEMGLCIIINNKNFHKSTGMTSRSGTDVDAANLRETFRNLKYEVRNKNDLTREEIVELMRDVSKEDHSKRSSFVCVLLSHGEEGIIFGTNGPVDLKKITNFFRGDRCRSLTGKPKLFIIQACRGTELDCGIETDSGVDDDMACHKIPVEADFLYAYSTAPGYYSWRNSKDGSWFIQSLCAMLKQYADKLEFMHILTRVNRKVATEFESFSFDATFHAKKQIPCIVSMLTKELYFYH
amplitude of the fluorescence cross-correlation function, Gcross(0) (EGFP-DEVD-mRFP1 (x2)): A decrease in Gcross(0) was observed as a result of addition of Caspase-3
fluorescence spectrum (FRET, excitation at 440 nm) before and after the reaction with Caspase-3 (MiCy-DEVD-mKO): after the addition thereof, FRET disappeared due to the cleavage of the linker and the fluorescence peak (559 nm) of mKO thereby disappeared, so that only the fluorescence peak (495 nm) of MiCy remained
amplitude of the fluorescence cross-correlation function, Gcross(0) [1]: A rapid decrease in Gcross(0) was observed as a result of addition of Caspase-3
SDS-PAGE and Native-PAGE bands after the reaction with Caspase-3 [2]: When keima 616-DEVD-ECFP was reacted with Caspase-3, the bands with the sizes of keima 616 and ECFP could be confirmed
amplitude of the fluorescence cross-correlation function, Gcross(0) [2]: A rapid decrease in Gcross(0) was observed as a result of addition of Caspase-3
